From US20050261170A1 (published 2005) come the findings set out here.

Primed or numbered codes have the meaning given here. NTA′ = nitrilotriacetic acid residue (Asp with its nitrogen carboxymethylated)

This experiment addresses T1, onconase bearing a six His tag (Rana pipiens, UniProt P22069 1-104).
T1 construct: also called His-tagged onconase
T1 sequence: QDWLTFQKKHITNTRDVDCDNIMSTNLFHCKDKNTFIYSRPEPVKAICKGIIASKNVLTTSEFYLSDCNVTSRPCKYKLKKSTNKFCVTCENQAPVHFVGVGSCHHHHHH
Put plainly: SPR (Biacore C1 chip): IMP 267 immobilised by a disulfide and loaded with NiCl2, flow cell without nickel as control, His-tagged onconase at 0-50 nM as analyte. How it is done: IMP 267 was bound to a Biacore® C1 sensor chip first by dissolving 0.0040 g of IMP 267 in 690 μL of 0.01 M, pH 4.3 formate buffer. The chip was activated for coupling of the peptide via a disulfide linkage using pyridyldithioelthylamine (“PDEA”) as described by Biacore. The Biacore® C1 chip was activated with a 10 μL aliquot of the recommended 1-ethyl-3-(3-dimethylaminoprolyl) carbodiimide (“EDC”)/N-hydroxysuccinimide (“NHS”) mixture at 5 μL/min in flow cells 1 & 2. The recommended PDEA solution, 35 μL (0.0047 g PDEA in 0.1 M, pH 8.5 Borate buffer) was added to the chip at flow cells 1 & 2. The peptide, 35 μL was added to flow cells 1 & 2 and the chip was quenched with an aliquot of cysteine (made from 0.0026 g cys, 0.0268 g NaCl, and 433 μL 0.1 M, pH 4.3 formate buffer) into cells 1 & 2. The chip was activated by adding nickel to only one flow cell using the other flow cell, without nickel, as the control. The activation was done at 40 μL/min using 100 μL of a 500 μM NiCl₂ solution in NTA buffer. A kinetics experiment was performed using the following concentrations of onconase bearing a six His tag (50 nM, 25 nM, 10 nM, 5 nM, 1 nM and 0 nM). […] The affinity of His-tagged onconase is accessed similarly.
On the technique in general: SPR reads the build-up and loss of mass on a sensor chip optically.

B1: IMP 267 (peptide)
peptide: Ac-CK(NTA′)K(NTA′)K(NTA′)-NH2
modifications: also: Cys thiol coupled to Biacore C1 chip by disulfide (PDEA), loaded with Ni2+
notes: Synthetic tri-NTA peptide; also called peptide that includes nitrilotriacetic acid residues
Broadly, the Kd is the equilibrium constant for the complex coming apart. A lower Kd goes with tighter binding. In the case of B1, the Kd was found to be 1.15 nM.
